Experimental data taken from patent US20100119450A1 (published 2010).
Blank lines part the entries; values can stand above or below the binder they belong to.

Assays:
[1] = target: T1, amyloid-β peptide Aβ1-42 (wild-type) (UniProt P05067 672-713); assay: SPR (BIACORE X), LRP-1 cluster immobilized on CM5 chip, Aβ in solution; apparent Kd from koff/kon
T1 construct: domain: Aβ1-42; Synthetic peptide; also called Aβ42
Method: (§1) Incubation conditions as described under Materials and Methods. […] Apparent affinity constants K_{d(app)} were deduced from the ratios of k_{off(app)}/kₒₙ₍ₐₚₚ₎ as described under Materials and Methods. […] K_{d(app)} (mean±SD) values were determined from 6 to 9 different concentrations of Aβ and 3 to 5 independent measurements at each concentration.
(§2) (as described in Westein et al., 2002). […] Ligand solution was replaced with buffer to initiate dissociation. The data were analyzed to calculate apparent association rate constants kₒₙ₍ₐₚₚ₎ and apparent dissociation rate constants k_{off(app)} using a single-site binding model (as described in Westein et al., 2002). Apparent affinity constants K_{d(app)} were inferred from the ratio k_{off(app)}/kₒₙ₍ₐₚₚ₎. Data are based on three to five measurements using six to nine different concentrations for each measurement. Data are presented as the mean±SEM. Analysis was performed using BIACORE X biosensor system (Uppsala, Sweden) and BIA evaluation 3.0 software (Biocore, Sweden).

[2] = target: T2, amyloid-β peptide Aβ1-40 (wild-type) (UniProt P05067 672-711); assay: as above
T2 construct: domain: Aβ1-40; Soluble monomeric synthetic peptide; used 125I-labeled as tracer in capillary and in vivo studies; also called Aβ40; wild-type Aβ1-40
Method: as §1, §2

Kd [1]: 3 nM | Kd [2]: 0.57 nM
B1: recombinant LRP-1 fragment encompassing cluster II (receptor, UniProt Q07954 805-1184, looked up)
chain: NKCRVNNGGCSSLCLATPGSRQCACAEDQVLDADGVTCLANPSYVPPPQCQPGEFACANSRCIQERWKCDGDNDCLDNSDEAPALCHQHTCPSDRFKCENNRCIPNRWLCDGDNDCGNSEDESNATCSARTCPPNQFSCASGRCIPISWTCDLDDDCGDRSDESASCAYPTCFPLTQFTCNNGRCININWRCDNDNDCGDNSDEAGCSHSCSSTQFKCNSGRCIPEHWTCDGDNDCGDYSDETHANCTNQATRPPGGCHTDEFQCRLDGLCIPLRWRCDGDTDCMDSSDEKSCEGVTHVCDPSVKFGCKDSARCISKAWVCDGDNDCEDNSDEENCESLACRPPSHPCANNTSVCLPPDKLCDGNDDCGDGSDEGELCDQ
notes: domain: cluster II; Produced in stably transfected baby hamster kidney cells as described in Westein et al., 2002; immobilized on CM5 chip; also called LRP-1 cluster II; LRP-1 II

Kd [1]: 10.1 nM | Kd [2]: 1.24 nM
B2: recombinant LRP-1 fragment encompassing cluster IV (receptor)
chain: not shown
notes: domain: cluster IV; Produced in stably transfected baby hamster kidney cells as described in Westein et al., 2002; immobilized on CM5 chip; also called LRP-1 cluster IV; LRP-1 IV
